Measured values as given in patent US20240084003A1 (SIMCERE ZAIMING PHARMACEUTICAL, published 2024).
Positions count from the first letter of the chain named.

T1: human CD22-ECD-His protein (human, UniProt P20273 20-687)
T1 construct: Made in house in HEK293E; also called hCD22-ECD-His; recombinant human CD22-ECD His protein; not shown: His tag
T1 sequence: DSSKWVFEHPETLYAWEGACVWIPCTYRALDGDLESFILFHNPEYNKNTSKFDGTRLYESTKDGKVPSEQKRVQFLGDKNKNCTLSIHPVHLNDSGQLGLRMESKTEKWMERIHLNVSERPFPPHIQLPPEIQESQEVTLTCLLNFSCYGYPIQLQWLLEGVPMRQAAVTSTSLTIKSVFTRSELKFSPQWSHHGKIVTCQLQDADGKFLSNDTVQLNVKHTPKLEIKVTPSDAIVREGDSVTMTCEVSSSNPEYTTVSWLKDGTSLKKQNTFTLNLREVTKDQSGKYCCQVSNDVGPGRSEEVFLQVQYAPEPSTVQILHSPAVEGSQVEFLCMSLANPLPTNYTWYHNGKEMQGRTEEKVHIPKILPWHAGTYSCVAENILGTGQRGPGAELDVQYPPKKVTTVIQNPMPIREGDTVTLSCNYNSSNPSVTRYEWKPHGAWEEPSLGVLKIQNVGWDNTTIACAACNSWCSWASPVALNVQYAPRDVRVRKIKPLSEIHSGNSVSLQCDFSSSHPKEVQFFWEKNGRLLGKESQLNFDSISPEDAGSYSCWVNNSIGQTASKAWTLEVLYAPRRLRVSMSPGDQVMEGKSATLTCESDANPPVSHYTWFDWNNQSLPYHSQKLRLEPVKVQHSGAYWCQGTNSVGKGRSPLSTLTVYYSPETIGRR

T2: murine CD22 protein (ACROBiosystems, SI2-M52Ha) (murine, UniProt P35329 22-708)
T2 construct: extracellular domain; also called murine CD22-ECD; murine CD22-ECD-His
T2 sequence (looked up): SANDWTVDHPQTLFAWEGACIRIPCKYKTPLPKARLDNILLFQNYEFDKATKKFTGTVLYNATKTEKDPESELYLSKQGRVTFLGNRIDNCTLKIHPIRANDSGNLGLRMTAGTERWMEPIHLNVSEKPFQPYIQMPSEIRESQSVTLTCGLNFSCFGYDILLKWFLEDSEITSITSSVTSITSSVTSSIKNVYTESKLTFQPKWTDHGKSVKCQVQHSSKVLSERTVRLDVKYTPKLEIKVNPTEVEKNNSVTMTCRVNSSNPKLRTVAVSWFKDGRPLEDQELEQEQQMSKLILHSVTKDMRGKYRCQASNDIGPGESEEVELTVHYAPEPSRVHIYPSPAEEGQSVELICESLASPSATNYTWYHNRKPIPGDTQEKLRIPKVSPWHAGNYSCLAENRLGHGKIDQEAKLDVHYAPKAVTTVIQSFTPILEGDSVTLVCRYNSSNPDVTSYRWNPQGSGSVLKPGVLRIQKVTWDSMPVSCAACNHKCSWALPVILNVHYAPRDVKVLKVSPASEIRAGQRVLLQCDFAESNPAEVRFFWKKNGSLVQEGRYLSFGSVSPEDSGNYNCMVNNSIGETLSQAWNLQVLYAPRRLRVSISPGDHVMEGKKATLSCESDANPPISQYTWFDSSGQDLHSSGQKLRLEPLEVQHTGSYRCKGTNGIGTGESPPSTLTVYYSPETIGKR

T3: human CD22 domain1-4-His (human, UniProt P20273 20-425)
T3 construct: also called hCD22 domain1-4-His; not shown: His tag
T3 sequence: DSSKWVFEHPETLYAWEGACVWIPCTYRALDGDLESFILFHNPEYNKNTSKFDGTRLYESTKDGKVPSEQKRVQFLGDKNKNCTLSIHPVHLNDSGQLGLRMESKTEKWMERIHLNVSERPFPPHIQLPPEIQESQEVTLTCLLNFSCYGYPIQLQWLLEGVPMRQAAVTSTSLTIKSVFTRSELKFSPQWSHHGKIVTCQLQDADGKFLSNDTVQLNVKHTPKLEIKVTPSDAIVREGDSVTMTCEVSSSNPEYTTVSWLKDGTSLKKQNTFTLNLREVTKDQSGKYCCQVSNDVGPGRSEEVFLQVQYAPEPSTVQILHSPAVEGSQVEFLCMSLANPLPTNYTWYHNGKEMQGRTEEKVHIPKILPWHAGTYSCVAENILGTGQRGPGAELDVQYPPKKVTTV

T4: human CD22 domain5-7-His (human, UniProt P20273 414-687)
T4 construct: also called hCD22 domain5-7-His; not shown: His tag
T4 sequence: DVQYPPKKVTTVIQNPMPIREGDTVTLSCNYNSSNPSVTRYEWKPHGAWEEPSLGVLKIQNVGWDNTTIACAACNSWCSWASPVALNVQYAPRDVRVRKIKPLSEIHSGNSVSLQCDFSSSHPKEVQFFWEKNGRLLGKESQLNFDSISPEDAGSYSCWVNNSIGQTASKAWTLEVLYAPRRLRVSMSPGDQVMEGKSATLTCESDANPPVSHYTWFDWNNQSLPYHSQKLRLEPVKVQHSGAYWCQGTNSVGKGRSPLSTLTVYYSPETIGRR

B1: F1.192.1 (antibody, human IgG1, kappa, V domains shown)
VH: AVQLQQSGVELVRPGASVKLSCTGSDFNIKEDYIHWVKQRPEQGLEWIGWIDPENGDTEYASKFQGKATITADTSSNTAYLQLSSLTSEDTAVYYCATYGSLDYWGQGTTLTVSS
VL: DIKMTQSPSSMYAFLGERVTITCKASQGINSFLTWFQQKPGKSPKTLIYRANRLVDGVPSRFSGSGSGQDYSLTISSLEYEDVGIYYCLQYDEFPRTFGGGTKLEIKR
notes: Human-murine chimeric IgG1, kappa
B2: F2.127.11 (antibody, human IgG1, lambda, V domains shown)
VH: QVTLKESGPGILQPSQTLSLTCSFSGFSLSTFGMGVGWIRQPSGKGLEWLAHIWWDDDKHYNPALKSRLTISKDTSRNQVFLKIANVDTADGATYFCARDNWVSSLDYWGQGTSVIVSS
VL: QPVITQSSSASFSLGASAELTCTLSSQHSTYTIEWYQQQPLKPPKYVMGLKKDGSHSTGDGIPDRFSGSSSGADRYLSISNIQPEDEAIYICGVSDTIKEQFVYVFGGGTKVTVLG
notes: Human-murine chimeric IgG1, lambda
B3: F2.99.1 (antibody, human IgG1, lambda, V domains shown)
VH: QVTLKESGPGILQPSQTLSLTCSFSGFSLSTFPMGVGWIRQPSGKGLEWLAHIWWDDDEYYNPVLKSRLTISKDTSKKQVYLRIANVDTVDTATYYCTRANWDRWYFDVWGTGTTVTVSS
VL: QLVLTQSSSASFSLGASAKLTCTLSRQHSAYTIEWYQQQPLKPPKYVMEVKKDGSHSTGDGIPDRFSGSSSGADRYLSISNIQPEDEAIYICGVGDTIKEHFVFGGGTKVTVLG
notes: as for B2
B4: F2.42.9 (antibody, human IgG1, lambda, V domains shown)
VH: QVTLKESGPGILQPSQTLSLTCSFSGFSLSTFDRGVGWIRQPSGKGLEWLAHIWWNDKKFYNPVLKSRLTISKDTSKNQVFLTIANVDSADTATYSCARIVWDKYYFDYWGQGIPLTVSS
VL: B3 VL with R26S, Y46F, E49D, V50L, D64A, S78T, H101Q, F102Y
notes: as for B2
B5: F1.267.9 (antibody, human IgG1, kappa, V domains shown)
VH: EVQLQQSGPVLVKPGASVKMSCKASGYTFTDFYMNWAKQSHGKSLEWVGVINPYNGGINYNQKFKGKATLTVDKSSSTAYMEFNSLTSEDSAVYYCARRMEYHAMDYWGQGTSVTVSS
VL: DIVLTQSPASLAVSLGQRATISCRASESVDNYGFDFIHWYQQKPGQPPKLLIYRASNLESGIPARFSGSGSRPDFTLTINPVETDDVATYYCQQSIKDPWTFGGGTKLEIKR
notes: as for B1
B6: F1.7.6 (antibody, human IgG1, kappa, V domains shown)
VH: EIQLQQSGPELVKPGTSVKVSCKASGYDFTRYNMYWVKQSHGKSLEWIGYIDPYNGDTRYNQKFKGKATLTVDKSSSTAYMHLNSLTSEDSAVYYCEAIYYDMEGYALDYWGQGTSVTVSS
VL: DIVMSQSPSSLAVSVGEKVTMSCKSSQSLLYSNNQKNYLAWYQQKPGQSPKKLIYWASTRESGVPDRLTGSGSGTDFTLTISSVTAEDLAVYYCQQFYSYPWTFGGGTKLEIKR
notes: as for B1

Experiments:
[1] = molecular target: T1, human CD22-ECD-His protein; experiment: ELISA, Ab 0.01 nM
Method: (§1) In order to detect the binding activity of CD22 human-murine chimeric antibodies to CD22 protein, the purified human CD22-ECD-His protein obtained in Example 2 was diluted with PBS to a final concentration of 2 μg/mL, and then added to 96-well ELISA plate at 100 μl/well. The plate was sealed with plastic film and incubated overnight at 4° C., the plate was washed 2 times with PBS the next day, and then a blocking solution [PBS+2% (w/w) BSA] was added for blocking at room temperature for 2 hours. […] After incubation at 37° C. for 2 hours, the plate was washed 3 times with PBS. HRP (horseradish peroxidase)-labeled secondary antibody (purchased from Sigma, catalog number: A0170) was added, and incubated at 37° C. for 2 hours, and the plate was washed 5 times with PBS. TMB substrate was added at 50 μl/well, and incubated at room temperature for 30 minutes, then a stop solution (1.0 N HCl) was added at 50 μl/well.

[2] = molecular target: T1, human CD22-ECD-His protein; experiment: ELISA, Ab 0.10 nM
Method: as §1

[3] = molecular target: T1, human CD22-ECD-His protein; experiment: ELISA, Ab 0.001 nM
Method: as §1

[4] = molecular target: T1, human CD22-ECD-His protein; experiment: ELISA, Ab 10.00 nM
Method: as §1

[5] = molecular target: T1, human CD22-ECD-His protein; experiment: ELISA, Ab 0.0001 nM
Method: as §1

[6] = molecular target: T1, human CD22-ECD-His protein; experiment: ELISA, Ab 100.00 nM
Method: as §1

[7] = molecular target: T1, human CD22-ECD-His protein; experiment: ELISA, Ab 0.00001 nM
Method: as §1

[8] = molecular target: T1, human CD22-ECD-His protein; experiment: ELISA, human CD22-ECD-His coated
Method: as §1

[9] = molecular target: T2, murine CD22 protein (ACROBiosystems, …); experiment: ELISA, murine CD22-ECD-His coated
Method: as §1
In order to detect the species cross-binding activity of the chimeric antibodies, an ELISA plate was coated with commercial murine CD22 protein (ACROBiosystems, catalog number: SI2-M52Ha) and monkey CD22 protein (ACROBiosystems, catalog number: SI2-R52Ha), respectively, and the ELISA detection was performed according to the method in Example 5.1.

human CD22 domain1-4-His = molecular target: T3, human CD22 domain1-4-His; experiment: ELISA, human CD22 domain1-4-His coated
human CD22 domain5-7-His = molecular target: T4, human CD22 domain5-7-His; experiment: ELISA, human CD22 domain5-7-His coated

Binder | OD450 [1] | OD450 [2] | OD450 [3] | OD450 [4] | OD450 [5] | OD450 [6] | OD450 [7] | EC50 (read off the curve) [8] | binding result [9] | binding result (human CD22 domain1-4-His) | EC50 (read off the curve) (human CD22 domain5-7-His) | EC50 (read off the curve) (human CD22 domain1-4-His) | binding result (human CD22 domain5-7-His)
B1 | 1.79 OD450 | 2.52 OD450 | 0.46 OD450 | 2.57 OD450 | 0.1 OD450 | 2.71 OD450 | 0.06 OD450 | ~0.05 nM | no binding (tested: 100 nM) | no binding (tested: 100 nM) | ~0.1 nM |  | 
B2 | 1.34 OD450 | 1.91 OD450 | 0.5 OD450 | 1.98 OD450 | 0.26 OD450 | 1.92 OD450 | 0.21 OD450 | ~0.05 nM | no binding (tested: 100 nM) |  |  | ~0.1 nM | no binding (tested: 100 nM)
B3 | 1.45 OD450 | 2.1 OD450 | 0.51 OD450 | 2.06 OD450 | 0.27 OD450 | 2.1 OD450 | 0.08 OD450 | ~0.04 nM | no binding (tested: 100 nM) |  |  | ~0.05 nM | no binding (tested: 100 nM)
B4 | 1.95 OD450 | 2.58 OD450 | 0.68 OD450 | 2.68 OD450 | 0.19 OD450 | 3.14 OD450 | 0.09 OD450 | ~0.04 nM | no binding (tested: 100 nM) |  |  | ~0.04 nM | no binding (tested: 100 nM)
B5 | 1.47 OD450 | 2.39 OD450 | 0.34 OD450 | 2.55 OD450 | 0.1 OD450 | 2.56 OD450 | 0.06 OD450 | ~0.08 nM | no binding (tested: 100 nM) |  |  | ~0.2 nM | no binding (tested: 100 nM)
B6 | 2.2 OD450 | 2.51 OD450 | 1.19 OD450 | 2.46 OD450 | 0.34 OD450 | 2.88 OD450 | 0.15 OD450 | ~0.02 nM | no binding (tested: 100 nM) |  |  | ~0.03 nM | no binding (tested: 100 nM)
